# Source: publication PMC8495455, “Discovery of a transdermally deliverable pentapeptide for activating AdipoR1 to promote hair growth” (EMBO Molecular Medicine, 2021)
# Where “and” joins values, the source holds several entries; their conditions need not be identical. Equal entries are not always repeated.
# B1: APN: adiponectin protein, positive control (protein, UniProt Q15848 19-244, looked up)
# Adiponectin: ETTTQGPGVLLPLPKGACTGWMAGIPGHPGHNGAPGRDGRDGTPGEKGEKGDPGLIGPKGDIGETGVPGAEGPRGFPGIQGRKGEPGEGAYVYRSAFSVGLETYVTIPNMPIRFTKIFYNQQNHYDGSTGKFHCNIPGLYYFAYHITVYMKDVKVSLFKKDKAMLFTYDQYQENNVDQASGSVLLHLEVGDQVWLQVYGEGERNGLYADNDNDSTFTGFLLYHDTN
# Key:
# [1] = system: C57BL/6 (WT) mice; assay: Mouse hair cycle modulation, hair cycle score, WT mice; format: in vivo; conditions: topical
# Text: (§1) First, we topically applied P5 and minoxidil as a positive control (Messenger & Rundegren, [2004]) on wildtype (WT) mouse. […] Overall, the hair cycle score was higher in the P5‐treated mice than vehicle‐treated mice (Fig 4B). […] Collectively, P5 induces anagen hair cycle in vivo.
# (§2) For the hair cycle modulation experiment, Adipoq ^−/− (stock #008195; JAX) (Ma et al, [2002]), Adipor1 ^−/− (Yamauchi et al, [2007]; Okada‐Iwabu et al, [2013]), or C57BL/6 (KOATECH) female mice was used (Müller‐Röver et al, [2001]). They were housed (up to four animals per cage; 23 ± 2°C, 8:00–20:00, 12 h/12 h light/dark cycle). Mice were fed a standard chow diet and provided food and water ad libitum. Mice were randomly allocated and shaved dorsally at 7.5 weeks of age. Only mice in telogen were included for the further experiments (Müller‐Röver et al, [2001]). From 8 weeks of age, the shaved dorsal area was treated with vehicle control (ethanol and polyethylene glycol, 30% and 70% v/v), P5 (0.1 mM), or minoxidil (3%) every day. The mouse hair growth score (a value from 0 to 100 based on the skin pigmentation and hair shaft density) was monitored and documented at designated days with the experimenters being blind to the conditions, following a previous study (Chai et al, [2019]). A higher score corresponds to a transition from telogen to anagen. On day 35, we obtained dorsal cutaneous tissue for histological analysis: anagen induction scores (calculated using an assigned arbitrary score; telogen = 1, anagen I–VI = 2–7) (Müller‐Röver et al, [2001]).
# [2] = system: C57BL/6 (WT) mice; assay: Mouse hair cycle modulation, histology and anagen induction score, WT mice; format: in vivo
# Text: as §1
# (§3) Paraffin‐embedded mouse cutaneous back tissue was sectioned (4 μm thickness) and stained with hematoxylin and eosin. For IF staining, human ORS cells cultured in FiTC‐P5, sectioned paraffin‐embedded human HFs (7 μm thickness), and sectioned paraffin‐embedded mouse cutaneous dorsal tissue or human skin tissue (5 μm thickness) were incubated at 4°C overnight with the following primary antibodies diluted in the diluent reagent (Invitrogen): phospho‐AMPK (#2535, 1:100; Cell Signaling), Ki‐67 (#M7240, 1:200; Dako), versican (#ab177480, 1:200; Abcam), or AdipoR1 antibody (#ab126611, 1:200; Abcam). After three washes with PBS, the slides were incubated with the secondary Alexa Fluor 488‐labeled anti‐mouse or rabbit IgG antibody (#ab150077, #ab150113, 1:200; Invitrogen), or Alexa Fluor 594‐labeled anti‐rabbit IgG antibody (#a11012, 1:200; Invitrogen) at 25°C for 1 h. Nuclei were counterstained with 4′,6‐diamidino‐2‐phenylindole (DAPI; #D1306, 1:1,000; Invitrogen). Microscopic observations were performed with a Nikon Eclipse Ci‐L microscope (Nikon). IF intensity was observed and recorded with a Nikon Eclipse Ni‐E fluorescence microscope (Nikon).
# as §2
# [3] = system: AMPK phosphorylation in ORS cells; assay: Western blot p-AMPK, ORS cells; format: cell-based, human; conditions: P5 0 - 50 μM, APN 2.5 μg/ml
# Text: (§4) Following the confirmation of the molecular interaction between AdipoR1 and P5, we evaluated the activation of the intracellular signaling pathway by P5. We investigated whether APN treatment on ORS and DP cells could activate AMPK or ERK signaling pathways, which are previously known to be downstream effectors of AdipoR1 (Mao et al, [2006]; Deepa & Dong, [2009]; Shibata et al, [2012]). […] Next, for determination of whether both P5 and APN mediates the phosphorylation of AMPK through AdipoR1 in ORS and DP cells, the cells were transfected with AdipoR1 siRNA (Appendix Fig S1). […] Collectively, P5 activates AMPK signaling pathway through AdipoR1 in ORS and DP cells in vitro.
# (§5) Human ORS and DP cells or skin tissue were lysed (RIPA lysis buffer; #20‐188; Merck Millipore). The obtained protein was then separated by 8% SDS–PAGE and transferred to a polyvinylidene fluoride membrane (Amersham). The protein transferred membranes were incubated overnight with the specific antibodies. […] Antibody‐antigen complexes detected by enhanced chemiluminescent substrate (Thermo Fisher) were captured and quantified by Amersham imager 680 systems (GE Healthcare).
# [4] = system: AMPK phosphorylation in DP cells; assay: Western blot p-AMPK, DP cells; format: cell-based, human; conditions: P5 0 - 50 μM, APN 2.5 μg/ml
# Text: as §4, §5
# [5] = system: ERK phosphorylation in ORS cells; assay: Western blot p-ERK1/2, ORS cells; format: cell-based, human
# Text: as §4, §5
# [6] = system: ERK phosphorylation in DP cells; assay: Western blot p-ERK1/2, DP cells; format: cell-based, human
# Text: as §4, §5
# [7] = system: AMPK phosphorylation through AdipoR1 in ORS cells; assay: Western blot p-AMPK in AdipoR1 siRNA-transfected ORS cells; format: cell-based, human
# Text: as §4
# (§6) All transfections were performed using Lipofectamine 2000 following the manufacturer’s instructions (#11668019; Thermo Fisher). Human DP and ORS cells were cultured without antibiotics until reaching 50% confluency. AdipoR1 or scrambled siRNA (Bioneer) was used. The culture medium was changed 6 h after transfection, and the cells were incubated for another 24 h before subsequent analyses.
# (§7) Human ORS and DP cells or skin tissue were lysed (RIPA lysis buffer; #20‐188; Merck Millipore). […] Antibody‐antigen complexes detected by enhanced chemiluminescent substrate (Thermo Fisher) were captured and quantified by Amersham imager 680 systems (GE Healthcare).
# [8] = system: AMPK phosphorylation through AdipoR1 in DP cells; assay: Western blot p-AMPK in AdipoR1 siRNA-transfected DP cells; format: cell-based, human
# Text: as §4, §6, §7
# [9] = system: matrix cells of human HF bulbs; assay: IF staining Ki-67 of ex vivo cultured HF bulb; format: cell-based; conditions: APN 10μg/ml, ex vivo cultured HF bulb; individual HFs, n = 8
# Text: We next investigated whether P5 can reproduce the effects of APN on hair growth promotion ex vivo (Won et al, [2012]) using ex vivo human HF organ culture model. […] The Ki‐67‐positive cell portion of the matrix area in the P5‐treated HFs was higher than that in the vehicle‐treated group (Fig 3E).
# as §3
# [10] = system: human scalp HFs; conditions: ref Won et al, [2012]; cited from earlier work
# Text: However, it is not well understood about the underlying action mechanism of APN on hair growth promotion and how to utilize this endogenous protein as clinically applicable drug forms (Otvos, [2019]).
Molecule,Gross morphology of dorsum ([1]; day 14),Gross morphology of dorsum ([1]; day 35),Histological examination of HFs ([2]; H&E),Anagen induction scores vs vehicle ([2]; One-way ANOVA with Tukey's test),"Phosphorylation of AMPK, ORS cells [3]","Phosphorylation of AMPK, DP cells [4]","Phosphorylation of ERK, ORS cells [5]","Phosphorylation of ERK, DP cells [6]","p-AMPK intensity after AdipoR1 siRNA transfection, ORS cells [7]","p-AMPK intensity after AdipoR1 siRNA transfection, DP cells [8]",Numbers of Ki-67-positive cells normalized to DAPI-stained cells [9],Hair growth ex vivo [10]
"Nc1cc(N2CCCCC2)nc(N)[n+]1[O-] [minoxidil, reference compound]",obvious pigmentation and hair,manifested a black hair coat,anagen HFs were noticeable,significantly higher,–,–,–,–,–,–,–,–
B1,–,–,–,–,phosphorylation of AMPK was observed,phosphorylation of AMPK was observed,no effect on the phosphorylation of ERK,no effect on the phosphorylation of ERK,intensity was reduced,intensity was reduced,0.29 and 0.31 and 0.23 and 0.25 and 0.22 and 0.21 and 0.35 and 0.28,promotes hair growth ex vivo effectively
